Results as given in the supplement of paper PMC10567573.
± gives the standard deviation.

Test: protein stability index of a GFP-peptide fusion (GPS, HEK-293T) (PSI 1-6); higher = more stable
Conditions: c terminus: a fixed tail appended
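Also: 24-mer peptide tiles fused after GFP, lentivirally expressed, FACS-sorted into six equal bins by GFP/DsRed ratio, decoded by Illumina sequencing, PSI is the read-weighted mean bin number.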

Sequence	protein stability index (treatment: DMSO)	protein stability index (treatment: MLN4924 1 uM, 8 h)
SNDNEERLQVVKLLAKMFGAKDSE [PDS5B]	3.17 ± 0.3	3.12 ± 0.4
ISFDRYYKIVKPLWTSFIQSVSYS [P2RY14]	3.63 ± 0.89	2.08 ± 0.7
SVIEPVQESSFRSRKIAVEDENDL [MIA2]	5.05 ± 0.49	5.21 ± 0.49
FQKGQVTRDGFKLVMASLYHIYVA [HMOX1]	2.83 ± 0.49	3.12 ± 0.97
EDMLLPLAWRIVNDTYRTDLCLLY [CCNC]	2.76 ± 0.57	2.59 ± 0.38
QNMMNHCNLWDSHHPEVPQRILRI [HDAC6]	2.2 ± 0.24	2.15 ± 0.083
WATRKPPAPKSTYECRCIGEEKEM [TIA1]	2.98 ± 0.44	3.4 ± 0.58
QVKKTTTRWCHIVRDSDSLAESEF [PHTF1]	3.44 ± 0.36	3.67 ± 0.25
YSLASGAGGGGSKGNSLKRSKSIR [RAB40C]	4.37 ± 0.17	4.41 ± 0.26
NSSPRVMQRKQSLGKPDQKDLNEN [DLC1]	5.09 ± 0.18	4.88 ± 0.28
FVSKIRAVINDIANLPVPTIAAID [AUH]	2.42 ± 1.6	2.04 ± 0.54
LPAEVAGLSQVLLRGGGQVLLGWT [POMT2]	2.26 ± 0.54	2.26 ± 0.14
AKQIMEETYKMEFMYSGVENKQVV [INTS4]	2.23 ± 0.31	2.65 ± 0.61
KRSWEEHVTHWMGQPFNSDDRNTA [DLC1]	3.12 ± 0.47	3.52 ± 0.52
PAQLSCLPYLEHVGHNHTYNMAPS [NFE2L1]	2.91 ± 0.25	2.96 ± 0.28
GEEQTQNPYTELLVLKAHHDIVRF [WDR41]	2.51 ± 0.32	2.79 ± 0.3
FEAYAKICDPGLTSFEPEALGNLV [CAMK2B]	2.71 ± 0.37	2.76 ± 0.32
TDCGKAFLKKSQLTEHKRIHTGKK [ZNF649]	3.62 ± 0.5	3.48 ± 0.42
EKYGRAHPVFYQGTYSQALNDAKR [FAF2]	3.28 ± 0.15	3.47 ± 0.37
ATVVMMTKLEERSRVKCDQYWPSR [PTPRD]	2.42 ± 0.32	2.17 ± 0.38
GLGVLRALGSRGWEPFDWGRLLEA [FANCE]	2.88 ± 0.2	2.47 ± 0.042
KVVEAHKIVLCAVSHVFMLLFNVK [RHOBTB3]	2.81 ± 0.64	3.07 ± 0.46
ASLNHLDSHILLCLMGLAETPGCA [DCAF4]	3.14 ± 0.58	2.82 ± 0.34

Sequence	protein stability index (treatment: DMSO)	protein stability index (treatment: MLN4924 1 uM, 8 h)
PCIPPGFRNLVADRVLNYTSWSQH [SPAG8]	2.14 ± 0.15	2.37 ± 0.27
DRFQVPTTEVNAWLVHRDPEGSVS [NFE2L1]	3.842 ± 0.034	4.5 ± 0.063
VFLNLHTLKFYCLPDNYEIIDSSL [USP39]	3.08 ± 0.48	2.58 ± 0.33
QASPYHPGSCGAGAPSPGSSDVST [ELF3]	4.57 ± 0.16	4.52 ± 0.43
PANCPACREPSPKMDFKTNILLKN [TRIM43]	3.38 ± 0.25	3.52 ± 0.21
DSRIRFGFLTVTNLGVENMNHYKK [PTPN9]	2.53 ± 0.19	2.7 ± 0.31
EQHGKKVPTVSRPYSFIEFDTFIQ [SEC22B]	2.75 ± 0.28	2.95 ± 0.26
MVFSGLCPLLLGSVMAIERCIGVT [PTGFR]	3.4 ± 0.078	3.37 ± 0.41
KHWVYVKRGGNCPAPAPLVPQDPD [ZBTB22]	3.32 ± 0.48	3.56 ± 0.43
ESFIKAIGVGLGFELQRLEFDLSP [AASDHPPT]	2.89 ± 0.77	2.84 ± 0.64
IFRNLCQMQEDNSSFSLLLDLLSE [INTS3]	2.61 ± 0.28	2.51 ± 0.37
ARVNENLARKIASRNEFDRTIAET [SSNA1]	3.95 ± 0.15	4.06 ± 0.2
HELTAKYLNYYQGMLDVADESLTD [P3H4]	4.01 ± 0.3	3.89 ± 0.48
DLVERALYSMECAFHPLFSLTSGA [TCF25]	3.09 ± 1.3	2.84 ± 0.93
TTPPGHGTLDNSKSMKPYNYCSAY [NEUROD6]	3.27 ± 0.18	3.25 ± 0.17
KVYDDMAFRYLSWILFPLLGCYAV [CLPTM1]	3.15 ± 0.23	3.07 ± 0.55
GYLLSFHTPGGQNQEILLPGGITS [TNXB]	2 ± 0.36	2 ± 0.41
DPSTGCYMYYFQYLSKTYCVDATR [KMT5A]	2.25 ± 0.34	2.18 ± 0.61
LLETNPYLLALTIIVSIVHSVFEF [CLPTM1]	3.08 ± 0.33	2.69 ± 0.13
FRDPIWSTWALYGRAVDQDKVLRF [MYORG]	2.12 ± 0.39	2.11 ± 0.15
DVHNRIVIRGLNTIPLFVQLLYSP [CTNNB1]	2.58 ± 0.58	2.73 ± 0.5
IVVATLPIPVVFVLRHFHLLSDGS [SLC6A17]	2.92 ± 0.56	3.21 ± 0.24
LMQLQDIQYLTENIWASQSVLSAC [IQUB]	2.67 ± 0.42	2.24 ± 0.37

Sequence	protein stability index (treatment: DMSO)	protein stability index (treatment: MLN4924 1 uM, 8 h)
EEEEEEEDEDDDSADMDESDEDDE [FBXO3]	5.37 ± 0.12	5.38 ± 0.15
SRFISANLPCNKFKNRLVNIMPYE [PTPRD]	2.13 ± 0.42	1.98 ± 0.13
KKRMRYFDPLRNEYFFDRNRPSFD [KCNA1]	2.47 ± 0.44	2.83 ± 0.19
ESHSCPQQVPMPPGQEAQRVVCGI [NEK8]	4.15 ± 0.28	4.15 ± 0.12
SSESSSDSDNSGGGGGGGGGGGGG [ANKRD17]	5.59 ± 0.27	5.7 ± 0.12
PAQPGADSSFPPALAEGYRYPELD [TBX6]	5.14 ± 0.18	5.01 ± 0.36
RNDKIKHVQNQVDEVIDVMQENIT [VAMP4]	4.51 ± 0.33	4.4 ± 0.98
NGDDMFVTFAAMQAQQGRSSLVWL [MCOLN1]	3.18 ± 0.54	2.83 ± 0.48
AKEDGKADTKKRHTPRGHAESTSN [SMOC2]	5.53 ± 0.25	5.45 ± 0.35
PRNSDMKNQGEENGFPDSTGDPLP [EDARADD]	5.53 ± 0.26	5.36 ± 0.13
FSDSSLIEDSQALHKRPKLDSEYY [LURAP1L]	3.86 ± 0.35	3.9 ± 0.21
AHSSSNTIRSGISPNLNVVDGRLT [SASS6]	4.16 ± 0.28	4.31 ± 0.12
LSVGQYNCPGQYTFSMPSDSHVSS [CD69]	3.05 ± 0.28	3.07 ± 0.27
LREENKALREENRMLSKENKILQV [CBY2]	4.75 ± 0.12	4.69 ± 0.15
FPREHQFFEDGDVQRHLYLQDVIM [ZNF511]	2.45 ± 0.085	2.78 ± 0.28
HNRYTENSLRGVILDIHFLSQADF [FUT8]	2.55 ± 0.67	2.41 ± 0.43
SHRPNMELCRDAAQFRLLSEVEEL [TEKT4]	3.82 ± 0.3	3.72 ± 0.05
LFIQKEEQLQQILKRKNKQAFLDE [MNAT1]	2.5 ± 0.47	2.61 ± 0.32
SSTSYRRTFGPPPSLSPGAFSYSS [PRPH]	3 ± 0.28	3.21 ± 0.3
SDDNAKLPCFNGRVVSWLVSAEGS [DVL3]	3.07 ± 0.19	3.06 ± 0.26
ACYFGHRQVVQDLLKAGAEVNVLN [OSBPL1A]	2.46 ± 0.2	2.6 ± 0.38
KGAILTTMLATRNFSAAKSLLNKK [CAMK2B]	2.91 ± 0.18	3.04 ± 0.24
TIRLNISDVNDNAPRFNQQLYTAY [PCDHGC5]	2.41 ± 0.18	2.37 ± 0.2

Sequence	protein stability index (treatment: DMSO)	protein stability index (treatment: MLN4924 1 uM, 8 h)
CEYETRLPGNHSTSQEIFRQRFRH [ZNF232]	3.48 ± 0.25	3.4 ± 0.17
QTSSSTFGGGSTRGGSLLAGGGGF [KRT15]	3.57 ± 0.17	3.7 ± 0.23
EPNTFSPANVDASVMYRKWKESKG [CDC34]	4.69 ± 0.15	4.59 ± 0.17
RIATETDQIGSEIIEELGEQRDQL [VTI1B]	5.38 ± 0.2	5.37 ± 0.14
WDSGCLAPPSTRTSHSLPESSVPS [PLEKHN1]	4.4 ± 0.59	4.64 ± 0.23
LQGFDQLRLEGLLCDVTLMPGDTD [KLHL13]	3.61 ± 0.36	3.88 ± 0.32
LPSRRDVYLSPRDDGYSTKDSYSS [RBMX]	4.11 ± 0.13	3.99 ± 0.42
ENPETDLHVNPKKQTIGNSCKACG [EIF5]	4.44 ± 0.39	4.66 ± 1.2
EKWAEGGGHSRERADEPQWSLYPS [CHGB]	4.28 ± 0.22	4.24 ± 0.064
FVERVRKRGFEVVYMTEPIDEYCV [HSP90AB1]		2.53 ± 0.26
KQTREQLHSISDSVLFLQEFGALM [TRIM29]	2.44 ± 0.52	2.36 ± 0.34
QYSGMLDCARRILAREGVAAFYKG [SLC25A25]	2.38 ± 0.34	2.23 ± 0.055
ANMEDLTEVITASEFHPHHCNLFV [PPP2R2C]	2.49 ± 0.3	2.41 ± 0.24
WTVANMEEIKKLTTDPDLILEVLR [LARP4]	2.15 ± 0.29	2.62 ± 0.27
VSVPENLPVGTQLLTVTATDRDEG [PCDHGA10]	5.42 ± 0.38	5.27 ± 0.12
EARPIETYQVHDYLRSKLCSLYEN [PPP2R2C]	2.7 ± 0.19	3.02 ± 0.33
EPKLHTPMYFFLGNLSVLDVGCIS [OR3A1]	2.7 ± 0.83	2.95 ± 0.71
KVFLHERELWLKFHEVGTEMIITK [TBX5]	2.12 ± 0.19	2.33 ± 0.44
SFGPQPISRLEQCGINANDVKKLE [RAD51]	4.27 ± 0.18	4.37 ± 0.14
STAHASAQSLAGGSRRTKEEELQC [TPD52L1]	5.16 ± 0.15	5.12 ± 0.23
LDKLRNEWASHTAALTNKHSQELT [SASS6]	3.85 ± 0.33	3.83 ± 0.3
